± gives the uncertainty stated by the source.
assay: protein stability index of a GFP-peptide fusion (yeast GPS) (PSI 1-4); higher = more stable; sorted into four equal gates, so the index is relative within each strain; conditions: doa10∆
Method in brief: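 Plasmids in a pooled yeast library fused tiled 17-residue yeast protein peptides downstream of GFP and also expressed Cherry. Mid-log cultures grown without leucine were sorted into four equal gates by GFP/Cherry fluorescence ratio. Each gate's plasmids were PCR-amplified and Illumina-sequenced, and reads were matched to strains by barcodes. The protein stability index is derived by multiplying each gate's read frequency by its gate number and summing the results.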

| Sequence | protein stability index |
| --- | --- |
| GLDKFSNIDIRVRVTGG [RPS16A] | 1.51 ± 0.082 |
| GLFEKSTVSANHSNNDI [BRN1] | 3.12 ± 0.14 |
| GLIPADATFAGHSLGEY [FAS1] | 3.01 ± 0.087 |
| GLPLGIAEEKMWSQFQT [YGR119C/NUP57] | 2.84 ± 0.14 |
| GLPTDAYVAIEQVKDDG [RPN8] | 2.61 ± 0.076 |
| GLPVGAIMNCADNSGAR [RPL23A] | 1.91 ± 0.053 |
| GLQDEIMKIGGIKLQMQ [SMC4] | 2.8 ± 0.071 |
| GLQGSGKTTSCTKLAVY [SRP54] | 2.47 ± 0.12 |
| GLSTDHTTQIVNLEDNT [YML103C/NUP188] | 2.89 ± 0.074 |
| GLTQLYKKSTENESTNY [MED7] | 3.08 ± 0.081 |
| GMCQLYFWHKIWRKVPG [SNU114] | 1.97 ± 0.064 |
| GNESVKPQFENHVKQFY [MED11] | 2.83 ± 0.19 |
| GNITRGLAVGLALINYG [RPN2] | 1.43 ± 0.17 |
| GNKNQFEPSISRSNFQG [LRP1] | 2.76 ± 0.13 |
| GNLYSKVMNNSFKLCTL [YML103C/NUP188] | 3.21 ± 0.21 |
| GNPGLPQYQYQRRYVIK [ITC1] | 3.27 ± 0.2 |
| GNPLLYDGVERVSLQDI [QCR2] | 1.73 ± 0.23 |
| GPDTKGQLEDFDSELIH [SMC3] | 3.1 ± 0.21 |
| GPKSGSTMGTPTVHNST [PGD1] | 3.05 ± 0.078 |
| GPLAEEPIYGVQYKLLS [SNU114] | 2.9 ± 0.11 |
| GPPQSLYGLNLTLRKAK [FAS1] | 2.81 ± 0.064 |
| GPVRENDILVLMESERE [RPS28A] | 2.61 ± 0.23 |
| GQIITLFSSRRLQAKRL [RMP1] | 2.78 ± 0.078 |
| GQLVELYVPRKCSATNR [RPS21A] | 2.46 ± 0.2 |
| GRGLWNPSYPGMMSTTG [YJL039C/NUP192] | 2.99 ± 0.092 |

| Sequence | protein stability index |
| --- | --- |
| GRGRGRGRPPKARNGLD [SNF2] | 3.13 ± 0.084 |
| GRILKWLWPLCRGELKA [CDC53] | 1.58 ± 0.095 |
| GRIPNVPVIVKARFVSK [RPL28] | 2.32 ± 0.025 |
| GRNNGKKLKAVRIIKHT [RPS5] | 2.06 ± 0.12 |
| GRPRGRPKKVKLEGSEN [SNF2] | 3.41 ± 0.19 |
| GSAEFNVKYRAVVFKPF [RPB7] | 2.81 ± 0.14 |
| GSCTGKFGYILCVLDYD [RPB7] | 2.3 ± 0.084 |
| GSFKRVKPQYDEIHIPA [BRR2] | 2.73 ± 0.1 |
| GSGAPVYLTAVLEYLAA [HTA1] | 1.64 ± 0.076 |
| GSHLSETEFPPFREFLQ [ECM29] | 3.12 ± 0.063 |
| GSIAMARVLFDDMVEYE [CYT1] | 3.51 ± 0.18 |
| GSLALLKLSMADYNGAL [POP4] | 2.33 ± 0.046 |
| GSSDEDLKSLNVRDDMK [SSN2] | 3.29 ± 0.13 |
| GSVELSTGDYTFTIQLL [YML103C/NUP188] | 2.05 ± 0.084 |
| GSYLCTSSTPSPIKNGS [YOR098C/NUP1] | 2.95 ± 0.054 |
| GTGNNSAVKRLLHVAVS [RPN2] | 2.19 ± 0.24 |
| GTQLATLKNRGLPLGIA [YGR119C/NUP57] | 2.04 ± 0.067 |
| GVAASQGSMSERPPYIL [SIR2] | 2.75 ± 0.11 |
| GVGILYKGMASNDERIV [BRR2] | 2.44 ± 0.098 |
| GVMLWKEFDETIFNLPK [FAS1] | 1.75 ± 0.073 |
| GVMSLLQKSSKSMITSE [YAR002W/NUP60] | 2.46 ± 0.06 |
| GVPNYLVQLEPHLFVNG [SSN2] | 1.96 ± 0.069 |
| GVRDINCVNDVLEFCKD [POP1] | 2.93 ± 0.18 |
| GVRPFGVSLLIAGHDEF [PRE8] | 2.46 ± 0.1 |
| GVSIENENKVIIELPNE [SRB4] | 2.77 ± 0.1 |

Source: the supplement of paper PMC9732359
